± gives the uncertainty stated by the source.
experiment: protein stability index of a GFP-peptide fusion (yeast GPS) (PSI 1-4); higher = more stable; sorted into four equal gates, so the index is relative within each strain; conditions: doa10∆
Method in brief: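 Mid-log yeast cultures in leucine-free medium, carrying a pooled plasmid library, were sorted into four equal gates by their GFP/Cherry fluorescence ratio. Each plasmid expressed Cherry along with GFP fused upstream of a tiled 17-residue yeast protein peptide. Plasmids recovered from each gate were PCR-amplified and Illumina-sequenced, with reads assigned to strains by barcodes. The protein stability index was obtained by summing each gate's read frequency weighted by its gate number.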

Sequence | protein stability index
LELVNTPLTENILIASL [YCG1] | 1.66 ± 0.052
LEMLKPCVEDGFVIQDR [RPB2] | 3.17 ± 0.086
LEQFMERNNIGEICKNY [YDL116W/NUP84] | 2.69 ± 0.11
LEQMELSILKGDYSQAT [RPN5] | 2.86 ± 0.079
LESWWLVLGEVSKKELY [BRR2] | 1.68 ± 0.16
LFGAKPQNTTATTGGLF [YGR119C/NUP57] | 2.7 ± 0.084
LFGMCESLYEPNLEPED [PUP3] | 2.77 ± 0.19
LFHFEEDEGEELTDEYL [PRP8] | 3.52 ± 0.14
LFKALKVILNERGGKFH [RGR1] | 2.44 ± 0.075
LFKKFNNDFKLSIDKVL [RET1] | 1.66 ± 0.12
LFLIIQCYKIYDLVILK [YMR129W/POM152] | 1.29 ± 0.063
LFLRGDSVIVVLKTPVE [SMD2] | 2.63 ± 0.12
LFPEQQTKEIKTERVED [RPL6B] | 3.55 ± 0.074
LFSSRRLQAKRLKDVEW [RMP1] | 2.62 ± 0.084
LGGPITKESQPTIEEDL [FAS2] | 3.02 ± 0.21
LGILKKKRFDEFMAGFN [SMC4] | 2.15 ± 0.11
LGKAQNWAKFTATASLG [RPN2] | 2.55 ± 0.059
LGKKKNVKEEETVAKSK [RPS8A] | 3.22 ± 0.052
LGKTIQTISLLTYLYEM [SNF2] | 1.72 ± 0.093
LGLAKSVHHARVLITQR [RPS9A] | 2.34 ± 0.12
LGLFIHKISFSGTKSEV [YJL039C/NUP192] | 1.86 ± 0.072
LGNIASSFYINHASMDV [BRR2] | 2.84 ± 0.12
LGPLFKKIVDDTIMENP [IRR1] | 2.62 ± 0.071
LGQERATDLAGPANNPN [PRP8] | 2.94 ± 0.048
LGQYVQAHTLYNSVRPF [PRE10] | 2.74 ± 0.1

Sequence | protein stability index
LGSGSLAAMAVLESHWK [PUP1] | 3.24 ± 0.16
LGSLTVEDYLSSVTSDS [RPC82] | 2.95 ± 0.11
LGSQSKSDEGGSYLCTS [YOR098C/NUP1] | 3.26 ± 0.11
LGVTYSSPTLATGFGAH [PRE4] | 2.41 ± 0.078
LGYTHIAINFTVNHSEK [RPP1] | 1.35 ± 0.038
LHCCIQLLMGDIPELSF [RPN3] | 1.71 ± 0.048
LHDTQIEGKLHMATALQ [RPN10] | 2.48 ± 0.22
LHEKYLTEGGSILEEKI [SMC1] | 3.02 ± 0.077
LHNFESVAPTKQREIVK [NUT1] | 2.71 ± 0.084
LHNIWSNGLLSIVLLLL [YML103C/NUP188] | 1.38 ± 0.069
LHNLNEYQIVYYNPQAG [RGR1] | 1.41 ± 0.27
LHYLKKFKHIDDKYGRK [SRP72] | 2.91 ± 0.061
LIERYYPKLTLDFQTNK [RPS17A] | 3.12 ± 0.074
LIIDDPSKGQSLSKISQ [RPP1] | 2.77 ± 0.07
LIIDGQIIFGVVEKKTV [RPO21] | 1.37 ± 0.087
LIIIEKKQKLIEEQDKK [ITC1] | 3.12 ± 0.13
LIIQKIPSLQNNIEENL [ECM29] | 2.91 ± 0.067
LILGLNTSIAQFDIQSP [YML103C/NUP188] | 1.94 ± 0.044
LINGHRAPQQSVLQLFQ [SMC2] | 3 ± 0.095
LIPFIVKQVLLSVEIGV [NUT1] | 1.57 ± 0.031
LIRNVGTNTYRLGEWSK [POP1] | 1.9 ± 0.28
LISDQLLEFFELVFSKG [YML103C/NUP188] | 2.57 ± 0.077
LITVMEKSPDPTIRSNA [YCS4] | 2.35 ± 0.052
LIYVNPFMLQWGIPLIK [FAS1] | 1.45 ± 0.082
LKAVTVEAGMIALRNGQ [RPT5] | 3.1 ± 0.23

Sequence | protein stability index
LKDLNLTVSIKIALMNI [RGR1] | 1.34 ± 0.062
LKELRIDNSPQAISYLH [GRR1] | 2.17 ± 0.054
LKESVEGEFNGDTIELA [PRE8] | 3.12 ± 0.092
LKGIQEFGADWYKVAKN [SWI3] | 3.25 ± 0.071
LKISGEEESLHVFQYAN [RPC37] | 1.85 ± 0.13
LKLEYYNLLVKISLHKR [RPN5] | 1.38 ± 0.26
LKNEGIDLDHKRFLILQ [SMC4] | 2.21 ± 0.22
LKNKREIYRISFQLSKI [RPS9B] | 3.34 ± 0.18
LKNPEIFQRVGIKPPKG [RPT4] | 2.13 ± 0.12
LKNTMQYLTNFSRFRDQ [RPB4] | 3.09 ± 0.12
LKPSMSVALHRHSNALV [RPT3] | 1.64 ± 0.11
LKQEIDRGLSIKLNGST [SNU114] | 2.88 ± 0.092
LKQNAIRARIPFYGSYT [SRP54] | 2.82 ± 0.077
LKRLAWQYIVIDEAHRI [ISW2] | 1.77 ± 0.077
LKRNSWPKTRGVAMNPV [RPL2A] | 2.95 ± 0.18
LKSAIRDEIAKNTELSY [RPN12] | 1.41 ± 0.058
LKTADNRDRSFQLLEPL [PGD1] | 3.29 ± 0.058
LKTDGVRAVSITSFGFG [FAS2] | 1.44 ± 0.067
LKTLVQGPRSYFLDVKC [RPS27A] | 3.08 ± 0.076
LKTNGKQNNKDFRTRYI [MTW1] | 2.75 ± 0.059
LKYLSVEEVIKLVRDSF [PRE7] | 2.71 ± 0.13
LLAVAIAASYHYPEIED [RPP0] | 1.38 ± 0.074
LLENFANFKTSKKYQLA [RRP6] | 2.09 ± 0.25

— the supplement of paper PMC9732359
